Measured values as given in article PMC7659713 (The Journal of Cell Biology, 2020).

Molecular target: the molecule itself
Experiment: native gel or EMSA

B1: FLAG-Pex14p(156–376)SD (domain or fragment, rat, UniProt Q642G4 156-376, looked up)
chain: SGSVAQTVTQVQTTLASVQELLRQQQQKVQELAHELAAAKATTSTNWILESQNINELKSEINSLKGLLLNRRQFPPDPSAPKIPSWQIPVKSPSPSSPAAVNHHSSSDISPVSNESPSSSPGKDGHSPEGSTATYRLLGPQEEGEGVVDVKGQVRMEVQGEEEKREDEEGEEDEDDDVSHVDEEDVLGVQREDRRGGDGQINEQVEKLRRPEGASNESERD
  fold formation of homo-oligomer against WT or SA mutant: ~1.5 fold
